Assay results reported in patent US20240254222A1 (Bayer, published 2024).
Numbering of substitutions follows the chain as printed.

T1: Mouse Semaphorin3A-Sema Domain, TPP-19069 (mouse, UniProt O08665 21-569)
T1 construct: produced inhouse
T1 sequence: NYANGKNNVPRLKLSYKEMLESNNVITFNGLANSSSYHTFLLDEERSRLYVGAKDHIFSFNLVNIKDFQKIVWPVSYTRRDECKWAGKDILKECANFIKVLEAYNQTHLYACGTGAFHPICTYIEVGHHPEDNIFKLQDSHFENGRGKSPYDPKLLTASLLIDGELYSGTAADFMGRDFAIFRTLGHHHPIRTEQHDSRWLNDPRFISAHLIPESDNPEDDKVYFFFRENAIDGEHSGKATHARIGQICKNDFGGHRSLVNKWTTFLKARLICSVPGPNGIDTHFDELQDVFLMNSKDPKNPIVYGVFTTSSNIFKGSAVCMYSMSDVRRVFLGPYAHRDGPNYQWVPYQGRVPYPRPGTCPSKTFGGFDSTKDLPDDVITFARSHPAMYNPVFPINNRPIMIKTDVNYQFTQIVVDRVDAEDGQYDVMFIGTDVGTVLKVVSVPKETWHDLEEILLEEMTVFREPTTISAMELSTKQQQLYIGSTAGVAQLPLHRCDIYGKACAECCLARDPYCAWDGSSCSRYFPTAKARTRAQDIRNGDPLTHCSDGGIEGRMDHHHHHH

T2: Cyno Semaphorin3A-Sema Domain, TPP-19122 (cynomolgus (Macaca fascicularis), UniProt Q63548 21-569 (rat entry), limits assumed)
T2 construct: produced inhouse
T2 chain: T1 sequence with A3Q, E102K, V126I, Q138E, D139N, S296F, V444I, I455V, V489I

T3: Rat Semaphorin3A-Sema Domain, TPP-19120 (rat, UniProt Q63548 21-569)
T3 construct: produced inhouse
T3 sequence: T1 sequence with E102K, I455V

B1: TPP-15374 (antibody, human IgG1, lambda, V domains shown)
VH: EVQLLESGGGLVQPGGSLRLSCAASGFTFSSYEMNWVRQAPGKGLEWVSGISWNSGSIGYADSVKGRFTISRDNSKNTLYLQMNSLRAEDTAVYYCARSGYSSSWFDPDFDYWGQGTLVTVSS
VL: QSVLTQPPSASGTPGQRVTISCTGSSSNIGAGYDVHWYQQLPGTAPKLLIYGNSNRPSGVPDRFSGSKSGTSASLAISGLRSEDEADYYCSSYAGSNPYVVFGGGTKLTVLG
notes: human IgG1; also called IgG1, hit from panning; parental mAb
B2: TPP-23337 (antibody, human IgG4 S228P, lambda, V domains shown)
VH: EVQLLESGGGLVQPGGSLRLSCAASGFTFSSYAMSWVRQAPGKGLEWVSAIGYGGDTYYADSVKGRFTISRDNSKNTLYLQMNSLRAEDTAVYYCARRDDYTSRDAFDYWGQGTLVTVSS
VL: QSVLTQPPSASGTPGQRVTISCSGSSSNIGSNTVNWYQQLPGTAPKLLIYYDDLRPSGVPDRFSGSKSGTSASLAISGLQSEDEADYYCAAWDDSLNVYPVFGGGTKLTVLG
B3: TPP-15370 (antibody, human IgG1, lambda, V domains shown)
VH: B2 VH with A33G, S35H, Y53T, K64M, Y109V
VL: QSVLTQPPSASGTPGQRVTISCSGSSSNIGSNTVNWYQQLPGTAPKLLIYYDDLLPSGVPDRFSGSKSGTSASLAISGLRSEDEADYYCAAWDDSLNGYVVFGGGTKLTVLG
notes: as for B1
B4: TPP-23340 (antibody, human IgG4 S228P, lambda, V domains shown)
VH: B2 VH
VL: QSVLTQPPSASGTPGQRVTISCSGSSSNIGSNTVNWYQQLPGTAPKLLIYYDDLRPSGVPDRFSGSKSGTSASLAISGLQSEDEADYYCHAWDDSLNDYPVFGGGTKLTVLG
B5: TPP-23341 (antibody, human IgG4 S228P, lambda, V domains shown)
VH: B2 VH
VL: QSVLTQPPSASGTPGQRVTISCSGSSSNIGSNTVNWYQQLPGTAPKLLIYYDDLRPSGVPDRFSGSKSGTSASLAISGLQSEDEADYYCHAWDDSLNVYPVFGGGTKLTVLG
B6: TPP-23373 (antibody, human IgG4 S228P, lambda, V domains shown)
VH: B2 VH with S30Y
VL: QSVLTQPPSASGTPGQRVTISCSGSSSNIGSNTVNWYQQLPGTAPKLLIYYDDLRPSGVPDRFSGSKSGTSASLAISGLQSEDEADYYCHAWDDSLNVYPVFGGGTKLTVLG
B7: TPP-23375 (antibody, human IgG4 S228P, lambda, V domains shown)
VH: B2 VH with S30Y
VL: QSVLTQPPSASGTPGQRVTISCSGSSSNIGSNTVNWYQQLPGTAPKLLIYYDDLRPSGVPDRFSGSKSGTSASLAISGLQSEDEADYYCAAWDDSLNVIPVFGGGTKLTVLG
B8: TPP-23298 (antibody, human IgG4 S228P, lambda, V domains shown)
VH: B2 VH with S30Y, Y53T
VL: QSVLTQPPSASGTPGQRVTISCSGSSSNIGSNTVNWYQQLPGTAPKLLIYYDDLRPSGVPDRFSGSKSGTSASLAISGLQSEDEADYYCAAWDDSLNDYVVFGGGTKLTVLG
B9: TPP-23338 (antibody, human IgG4 S228P, lambda, V domains shown)
VH: B2 VH
VL: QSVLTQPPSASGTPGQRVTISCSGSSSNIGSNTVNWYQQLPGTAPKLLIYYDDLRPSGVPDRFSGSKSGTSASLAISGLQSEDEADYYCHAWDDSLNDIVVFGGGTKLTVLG
B10: TPP-23374 (antibody, human IgG4 S228P, lambda, V domains shown)
VH: B2 VH with S30Y
VL: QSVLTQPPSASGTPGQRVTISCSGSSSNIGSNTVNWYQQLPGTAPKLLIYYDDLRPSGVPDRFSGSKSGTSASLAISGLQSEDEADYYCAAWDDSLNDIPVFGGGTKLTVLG
B11: TPP-23347 (antibody, human IgG4 S228P, lambda, V domains shown)
VH: B2 VH with S30Y, S35L, Y53T
VL: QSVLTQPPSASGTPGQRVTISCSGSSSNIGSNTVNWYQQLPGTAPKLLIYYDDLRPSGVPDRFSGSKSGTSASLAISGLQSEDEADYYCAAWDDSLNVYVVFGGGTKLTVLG
B12: TPP-23334 (antibody, human IgG4 S228P, lambda, V domains shown)
VH: B2 VH
VL: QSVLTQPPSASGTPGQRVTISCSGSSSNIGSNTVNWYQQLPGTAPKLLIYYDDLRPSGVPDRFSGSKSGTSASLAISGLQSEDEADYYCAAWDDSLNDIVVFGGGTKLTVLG
B13: TPP-23345 (antibody, human IgG4 S228P, lambda, V domains shown)
VH: B2 VH
VL: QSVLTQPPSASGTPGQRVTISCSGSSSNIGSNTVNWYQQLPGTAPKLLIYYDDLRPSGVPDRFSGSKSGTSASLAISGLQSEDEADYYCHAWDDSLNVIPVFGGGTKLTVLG
B14: TPP-23346 (antibody, human IgG4 S228P, lambda, V domains shown)
VH: B2 VH with S30Y, S35L, Y53T
VL: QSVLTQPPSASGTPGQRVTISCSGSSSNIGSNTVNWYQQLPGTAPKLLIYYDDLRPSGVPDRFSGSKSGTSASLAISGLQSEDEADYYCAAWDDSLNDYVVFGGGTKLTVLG
B15: TPP-30792 (antibody, human IgG1, lambda, V domains shown)
V domain 1: EVQLLESGGGLVQPGGSLRLSCAASGFTFRSYAVHWVRQAPGKGLEWVSSTEGSGVGTSYTDSVKGRFTISRDNSKNTLYLQMNSLRAEDTAVYYCARMLGGGNPLDYLDYWGQGTLVTVSS
V domain 2: QSVLTQPPSASGTPGQRVTISCSGSSSNLGEGYDVHWYQQLPGKAPKLLIYYSDFRPSGVSDRFSGSKSGTSASLAISGLQSEDEADYYCAAWDDSLSSQVFGGGTQVTVLG
notes: IgG1; prior art, WO 2020/261281; also called 3H4 Univ Ramot; 3H4 (Ramot) Clon I
B16: TPP-17755 (antibody, human IgG1, lambda, V domains shown)
VH: EVQLLESGGGLVQTGGSLRLSCAASGFTFSDYAMSWVRQAPGKGLEWVSWIYYDSGSKYYADSVKGRFTISRDNSKNTLYLQMNSLRAEDTAVYYCAKLNGDFDYWGQGTLVTVSS
VL: QSVLTQPPSASGTPGQRVTISCSGSSSNIGNNDVSWYQQLPGTAPKLLIYADSHRPSGVPDRFSGSKSGTSASLAISGLRSEDEADYYCGAWDSSLSGYVFGGGTKLTVLG
notes: also called Samsung; Samsung Prior Art F11
B17: TPP-11489 (antibody, human IgG1, lambda)
heavy: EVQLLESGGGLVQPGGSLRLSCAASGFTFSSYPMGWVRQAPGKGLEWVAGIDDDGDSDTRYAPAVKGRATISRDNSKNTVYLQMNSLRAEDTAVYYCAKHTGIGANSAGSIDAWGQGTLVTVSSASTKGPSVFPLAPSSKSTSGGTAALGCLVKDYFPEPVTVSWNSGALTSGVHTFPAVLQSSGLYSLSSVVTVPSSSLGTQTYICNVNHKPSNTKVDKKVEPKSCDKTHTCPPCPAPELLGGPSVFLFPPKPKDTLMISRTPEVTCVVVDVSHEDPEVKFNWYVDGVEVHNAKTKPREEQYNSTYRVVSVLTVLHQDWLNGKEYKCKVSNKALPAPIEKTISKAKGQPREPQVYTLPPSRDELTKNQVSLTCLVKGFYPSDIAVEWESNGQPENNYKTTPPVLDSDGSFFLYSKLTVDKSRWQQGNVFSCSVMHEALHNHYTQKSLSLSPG
light: SYELTQPPSVSVSPGQTARITCSGGGSYTGSYYYGWYQQKPGQAPVTVIYYNNKRPSDIPERFSGSLSGTTNTLTISGVQAEDEADYYCGSADNSGDAFGTGTKVTVLGQPKAAPSVTLFPPSSEELQANKATLVCLISDFYPGAVTVAWKADSSPVKAGVETTTPSKQSNNKYAASSYLSLTPEQWKSHRSYSCQVTHEGSTVEKTVAPTECS
notes: human IgG1; also called Chiome; Chiome Prior Art (hIgG1)
B18: TPP-30788 (antibody, human IgG1, kappa, V domains shown)
VH: EVQLVESGGGLVQPGGSLRLSCAASGFTFSSYYMSWVRQAPGKGLEWVSTIIKSGGYAYYPDSVKDRFTISRDNSKNTLYLQMSSLRAEDTAVYYCVRGGQGAMDYWGQGTTVTVSS
VL: EIVLTQSPATLSLSPGERATLSCRASQSIGDYLHWYQQKPGQAPRLLIKYASQSISGIPARFSGSGSGTDFTLTITSLEPEDFAVYYCQQGYSFPYTFGGGTKLEIKR
notes: prior art, WO 2020/225400; also called BI clone I; Böhringer (BI) Clone I
B19: TPP-30789 (antibody, human IgG1, kappa, V domains shown)
VH: B18 VH with T28P
VL: B18 VL
notes: prior art, WO 2020/225400; also called BI clone II; Böhringer (BI) Clone II
B20: TPP-30790 (antibody, human IgG1, kappa, V domains shown)
VH: B18 VH with P14L, S84N, R98K
VL: B18 VL with K49Y, T76S
notes: prior art, WO 2020/225400; also called BI clone III; Böhringer (BI) Clone III
B21: TPP-30791 (antibody, human IgG1, kappa, V domains shown)
VH: B18 VH with V12L, P14L, Y80N, S84N, R98K
VL: B18 VL with T76S
notes: prior art, WO 2020/225400; also called BI clone IV; Böhringer (BI) Clone IV

These binders were tested against T1, Mouse Semaphorin3A-Sema Domain, … (assay: SPR, captured antibody, Sema3A domain analyte).
Summary of the method: (§1)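 SPR on Biacore T200/8K+ at 25° C in HBS P+ with 300 mM NaCl, 0.75 mM CaCl₂, 2.5 mM MgCl₂, 1 mg/ml BSA; antibodies captured by anti-human Fc, or anti-human Fab for Fc-tagged analytes. Fc-Sema3A at 1.56-200 nM; monovalent Sema domains at […]-3.125 nM multi-cycle or 100 nM binding only. Double-referenced 1:1 Langmuir fit.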

| Kd | binding result | Binder |
| --- | --- | --- |
| 8.3 nM |  | B1 |
| 0.05 nM |  | B2 |
| 7.2 nM |  | B3 |
| 0.059 nM |  | B4 |
| 0.092 nM |  | B5 |
| 0.083 nM |  | B6 |
| 0.042 nM |  | B7 |
| 0.074 nM |  | B8 |
| 0.045 nM |  | B9 |
| 0.016 nM |  | B10 |
| 0.055 nM |  | B11 |
| 0.062 nM |  | B12 |
| 0.063 nM |  | B13 |
| 0.064 nM |  | B14 |
|  | no binding | B15 |
| 3.9 nM |  | B16 |
| 160 nM |  | B17 |
| 0.043 nM |  | B18 |
| 0.042 nM |  | B19 |
| 0.04 nM |  | B20 |
| 0.028 nM |  | B21 |

Molecular target: T2, Cyno Semaphorin3A-Sema Domain, TPP-19122
Assay: SPR, captured antibody, Sema3A domain analyte
Summary of the method: as §1

| Kd | binding result | Binder |
| --- | --- | --- |
| 46 nM |  | B1 |
| 0.026 nM |  | B2 |
| 40 nM |  | B3 |
| 0.06 nM |  | B4 |
| 0.087 nM |  | B5 |
| 0.072 nM |  | B6 |
| 0.045 nM |  | B7 |
| 0.078 nM |  | B8 |
| 0.042 nM |  | B9 |
| < 0.003 nM |  | B10 |
| 0.054 nM |  | B11 |
| 0.015 nM |  | B12 |
| 0.062 nM |  | B13 |
| 0.061 nM |  | B14 |
|  | no binding | B15 |
| 14 nM |  | B16 |
| 63 nM |  | B17 |
| 0.078 nM |  | B18 |
| 0.079 nM |  | B19 |
| 0.077 nM |  | B20 |
| 0.057 nM |  | B21 |

What follows are binders tested against T3, Rat Semaphorin3A-Sema Domain, TPP-19120 (assay: SPR, captured antibody, Sema3A domain analyte).
Summary of the method: as §1

| Kd | binding result | Binder |
| --- | --- | --- |
| 9.8 nM |  | B1 |
| 0.11 nM |  | B2 |
| 14 nM |  | B3 |
| 0.03 nM |  | B8 |
| 0.0033 nM |  | B10 |
| 0.056 nM |  | B12 |
|  | no binding | B15 |
| 5.4 nM |  | B16 |
| 33 nM |  | B17 |
| 0.026 nM |  | B18 |
| 0.026 nM |  | B19 |
| 0.022 nM |  | B20 |
| 0.017 nM |  | B21 |
